Results on two molecules are retold here after doi:10.1101/2024.05.23.595592 (bioRxiv, 2024).

The labels stand for the following.
B2: Human IL-34 (19-241) (ligand)
chain: LGNEPLEMWPLTQNEECTVTGFLRDKLQYRSRLQYMKHYFPINYKISVPYEGVFRIANVTRLQRAQVSERELRYLWVLVSLSATESVQDVLLEGHPSWKYLQEVETLLLNVQQGLTDVEVSPKVESVLSLLNAPGPNLKLVRPKALLDNCFRVMELLYCSCCKQSSVLNWQDCEVPSPQSCSPEPSLQYAATQLYPPPPWSPSSPPHSTGSVRPVRAQGEGLL

Holding throughout (test): BLI
Background: Biolayer interferometry detects binding as a change in optical thickness at a sensor tip.

Assay [1] deals with oligomeric amyloid beta 42 (UniProt P05067).
The assay “Human IL-34 (19-241)” addresses B2.
The next assay addresses T1, TREM2 R47H, biotinylated (human, UniProt Q9NZC2, R47H, biotin on the C-terminal BirA biotinylation sequence (enzymatic, BirA)).
T1 sequence: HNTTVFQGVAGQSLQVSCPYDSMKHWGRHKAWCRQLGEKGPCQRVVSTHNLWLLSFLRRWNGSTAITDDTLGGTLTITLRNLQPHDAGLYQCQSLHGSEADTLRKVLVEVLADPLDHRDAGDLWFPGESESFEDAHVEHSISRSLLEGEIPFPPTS

The next assay has as its target T2, TREM2 R62H, biotinylated (human, UniProt Q9NZC2, R62H, biotin on the C-terminal BirA biotinylation sequence (enzymatic, BirA)).
T2 sequence: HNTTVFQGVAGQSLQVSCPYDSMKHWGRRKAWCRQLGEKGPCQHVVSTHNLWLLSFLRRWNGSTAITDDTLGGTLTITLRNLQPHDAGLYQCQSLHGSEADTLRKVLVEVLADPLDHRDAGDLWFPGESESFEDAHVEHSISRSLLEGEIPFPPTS

B1: TREM2 WT, biotinylated (receptor)
chain: HNTTVFQGVAGQSLQVSCPYDSMKHWGRRKAWCRQLGEKGPCQRVVSTHNLWLLSFLRRWNGSTAITDDTLGGTLTITLRNLQPHDAGLYQCQSLHGSEADTLRKVLVEVLADPLDHRDAGDLWFPGESESFEDAHVEHSISRSLLEGEIPFPPTS
modifications: biotin on the C-terminal BirA biotinylation sequence (enzymatic, BirA)
Broadly, the Kd is the equilibrium constant for the complex coming apart. As to B1, the dissociation constant Kd in assay [1] came out at 42.5 nM; with Human IL-34 (19-241), 16.5 nM.

Turning to B2, the “fold decrease in KD (affinity) against TREM2 WT” value in the assay with TREM2 R47H, biotinylated was ~4 fold; in the assay with TREM2 R62H, biotinylated, ~4 fold.
